Source: publication PMC2965261 (Nucleic Acids Research, 2010)

Biological target: T1, Candida albicans Ino4 (C. albicans, UniProt A0A1D8PH18 1-130)
T1 sequence: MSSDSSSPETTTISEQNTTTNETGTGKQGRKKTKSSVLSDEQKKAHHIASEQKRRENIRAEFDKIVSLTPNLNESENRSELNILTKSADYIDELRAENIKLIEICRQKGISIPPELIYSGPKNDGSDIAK
Experiment: two-hybrid

B1: Candida albicans Ino2 (natural protein)
chain: MSSTVTQTMNNNPTEKVTFTASNSQADFDLLDIFSNDMDFEQAYDMYNNLQEKNAMGSFEQLQKVQALNQQYVSNLQPPSSAQFPDQFAYERAQILNGEYNKQSGLMNDATNKNYSFNDDTFDQFFTNTESNALEKFLDNLANPVASVNPLQFYNNTRTSVPDEDVDLSFELHTMKVPQQFKPRSQSLEHNPPLQQKVRFTEEEHAALKQELTEAFAHPCTQLPSPSTTEYKPKPTTPKVVKQFVTPPNSGDESRKRNSDIESDESEEETTPTTKKRKRTSSKPLLSVEQKRLNHSHSEQKRRQLCKFAYQRCLELIIDLDAFNKLPELNESERKSKRARVNKDGLPNLSKHNALIRISNEMILIKSMNDSLKKLIENR
**Q.** B1 was tested. Which “galactosidase activity, fold of the background activity” value did it give?
**A.** 2.5 fold
